This data set concerns the molecule itself. Briefly: cryo-EM structure; detergent-purified protein (6 mg/mL) incubated with 100 μM CPIII, 2 mM MgCl2, 2 mM ATP and 2 mM sodium orthovanadate for 30 min at 22 °C; single-particle analysis.

B1: core region of human ABCB6 (residues 206-842, without TMD0) (domain or fragment, UniProt Q9NP58 206-842, looked up)
chain: APGLRPQSYTLQVHEEDQDVERSQVRSAAQQSTWRDFGRKLRLLSGYLWPRGSPALQLVVLICLGLMGLERALNVLVPIFYRNIVNLLTEKAPWNSLAWTVTSYVFLKFLQGGGTGSTGFVSNLRTFLWIRVQQFTSRRVELLIFSHLHELSLRWHLGRRTGEVLRIADRGTSSVTGLLSYLVFNVIPTLADIIIGIIYFSMFFNAWFGLIVFLCMSLYLTLTIVVTEWRTKFRRAMNTQENATRARAVDSLLNFETVKYYNAESYEVERYREAIIKYQGLEWKSSASLVLLNQTQNLVIGLGLLAGSLLCAYFVTEQKLQVGDYVLFGTYIIQLYMPLNWFGTYYRMIQTNFIDMENMFDLLKEETEVKDLPGAGPLRFQKGRIEFENVHFSYADGRETLQDVSFTVMPGQTLALVGPSGAGKSTILRLLFRFYDISSGCIRIDGQDISQVTQASLRSHIGVVPQDTVLFNDTIADNIRYGRVTAGNDEVEAAAQAAGIHDAIMAFPEGYRTQVGERGLKLSGGEKQRVAIARTILKAPGIILLDEATSALDTSNERAIQASLAKVCANRTTIVVAHRLSTVVNADQILVIKDGCIVERGRHEALLSRGGVYADMWQLQQGQEETSEDTKPQTMER
notes: Homodimer in the cryo-EM maps; also called hABCB6^core; ABCB6^core; not shown: eGFP, C-terminal, cleaved; 10×His, C-terminal, cleaved
With B1, the binding result was “binds”.

B2: hABCB6^core-W546A mutant (domain or fragment, human, UniProt Q9NP58 206-842, looked up)
chain: APGLRPQSYTLQVHEEDQDVERSQVRSAAQQSTWRDFGRKLRLLSGYLWPRGSPALQLVVLICLGLMGLERALNVLVPIFYRNIVNLLTEKAPWNSLAWTVTSYVFLKFLQGGGTGSTGFVSNLRTFLWIRVQQFTSRRVELLIFSHLHELSLRWHLGRRTGEVLRIADRGTSSVTGLLSYLVFNVIPTLADIIIGIIYFSMFFNAWFGLIVFLCMSLYLTLTIVVTEWRTKFRRAMNTQENATRARAVDSLLNFETVKYYNAESYEVERYREAIIKYQGLEWKSSASLVLLNQTQNLVIGLGLLAGSLLCAYFVTEQKLQVGDYVLFGTYIIQLYMPLNAFGTYYRMIQTNFIDMENMFDLLKEETEVKDLPGAGPLRFQKGRIEFENVHFSYADGRETLQDVSFTVMPGQTLALVGPSGAGKSTILRLLFRFYDISSGCIRIDGQDISQVTQASLRSHIGVVPQDTVLFNDTIADNIRYGRVTAGNDEVEAAAQAAGIHDAIMAFPEGYRTQVGERGLKLSGGEKQRVAIARTILKAPGIILLDEATSALDTSNERAIQASLAKVCANRTTIVVAHRLSTVVNADQILVIKDGCIVERGRHEALLSRGGVYADMWQLQQGQEETSEDTKPQTMER
notes: Homodimer in the cryo-EM structures; Used in detergent micelles and in nanodiscs (porcine brain polar lipids, hApoA-I (Δ1-43) scaffold); source: also reconstituted into nanodiscs; not shown: eGFP, C-terminal, cleaved; 10×His, C-terminal, cleaved
The term stoichiometry N denotes the number of molecules, sites or subunits per partner or assembly. In the case of B2, the “stoichiometry N” value was 2.
